The numbers were not newly measured in article PMC6764118, which cites them from elsewhere.

This data set addresses Lys199 (UniProt position 223, AKQRLKCASLQ). The experiment in a line: chemical modification.

For “Human serum albumin (HSA) (Homo sapiens)”, the pKa result is recorded as “∼8”.
